System: MS2 coat protein
Test: apparent KD of MS2 coat protein; designed switch direction (-1 OFF switch, 1 ON switch): -1; higher = weaker reporter binding
Summary of the method: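 Transcription of designed RNA switches on Illumina chips was done by stalled E. coli RNA polymerase. SNAP-549-labelled MS2 coat protein was then titrated in doubling steps from 0.7 or 1.5 nM to 3 µM, with steps of 0.8–1.5 h at the lowest and 10–20 min at the highest concentration. The per-design median over clusters of curve-fitted normalised fluorescence is reported as apparent KD.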

[1] = input ligand: microRNA oligo, concentration not stated
[2] = Eterna round: R95, input ligand: microRNA oligo, concentration not stated
[3] = Eterna round: R95, input ligand: FMN 200 uM
[4] = Eterna round: R95, input ligand: none

Sequence	apparent KD of MS2 coat protein (input ligand: FMN 200 uM) [nM]	apparent KD of MS2 coat protein (input ligand: none) [nM]	apparent KD of MS2 coat protein [1] [nM]	apparent KD of MS2 coat protein [2] [nM]	apparent KD of MS2 coat protein [3] [nM]	apparent KD of MS2 coat protein [4] [nM]
UAGAUGGGAGGAUAUACGUAGAUGCAGGUUCGUGUGGUGCUACAUGAGGAUCACCCAUGUAGAAGGCCCGUCUU [Resubmit R3 JL-ex2-2.29] (Eterna round: R97, puzzle: Exclusion 2)	77.4	18.4				
ACUCACUCGCGAGGAUAUGGACAAAUAUAAACGCUAGAAGGCGCGACAUGAGGAUCACCCAUGUACUCACUCACUCACUCACAU [my 1st design ever] (Eterna round: R96, puzzle: Exclusion NG 1)	62.6	41.9	27.5			
GUUAGUUAAGGAUAUACUGGGAGCUGCGGCGUCUCGCCGCAACAUGAGGAUCACCCAUGUAGAAGGUGACCGUU [JL ViennaUCT Enbibi mod 6] (puzzle: Exclusion 2)				283		
GGAUCGAGUGUGAGGAUAUACCUAUGGAUACAUAGGUAGAAGGCACAUGAGGAUCACCCAUGUUCCAACGGUCC [Eli bmx4 4.11] (Eterna round: R97, puzzle: Brourd's mod of Exclusion 4)	817	108				
UAAUACAAGUAGAGAUUCUACAUGAGGAUCACCCAUGUGCUCGUCUUAUAAAGUACUAUCACGAAAGUGAUAGUACU [Mat - Sensor v3 - turn-off var 1 - Eli Mod - D98] (puzzle: Sensor v3, turn-off variant 1)				192	18.3	17.4
ACCUCACAUGAGGAUCACCCAUGUUAGGAUAUCUCGAUGCUCCGCGGGCGGGAGCAUCAGAGAAGGAACGUGCA [Geusarvees] (puzzle: Exclusion 1)				18.3		
GGCACACAUGUAGGAUAUCUGCACGUGUAGUGCAGAGAAGGACAUGAGGAUCACCCAUGUAAUUAAGAUCAAUUAUUAAGUGCC [ENG1/3-A3] (Eterna round: R96, puzzle: Exclusion NG 1)	481	58.9	48.6			
CUCUUGUGAGGAUAUCAGGUGUGCUAGCGUACUGGUACAUCUGAGAAGGCACAUGAGGAUCACCCAUGUUUCUU [JL-ex4-3.21 Brourd mod] (puzzle: Exclusion 4)				78.1		
UGAUUUGGAGGAUAUACAUGAGGAUCACCCAUGUAAAGGCCGUGGGUCGAACCCGAGAGUAGAAGGUCGAGAGA [Eternabot (L1) Solution 30] (Eterna round: R97, puzzle: Exclusion 3)	185	91.7				
CUGCUCCGUGUAGGAUAUGCGCGCAACCAACGCGCAGAAGGACAUGAGGAUCACCCAUGUAUGUUAUUAUCACGUGAAGCGCAA [Design 31] (Eterna round: R96, puzzle: Exclusion NG 1)	16	13.2	12.3			
GUCAGACGAGGAUAUAGAUUUAGAUACAUGAGGAUCACCCAUGUAUAGAUGUAUUUAGAUUUAGAAGGCGUCUGAC [E5/13-A3] (Eterna round: R97, puzzle: Exclusion 5)	231	201				
AGUACUAACACGAAAGUGUUUGUACAAUAAGCUUGUGAAACAUGAGGAUCACCCAUGUCCUCAUAAGCUCGUCUUAU [salish99_TOv2_r3_035] (puzzle: Sensor v3, turn-off variant 2)				580	17.5	17.1
UAAAAGCGAGGAUAUACAUGAGGAUCACCCAUGUGAGGCGAAAAGCCUCGGGCCAUCAGUAGAAGGUGCAAAAC [Arcecela] (puzzle: Exclusion 3)				68.9	79	112
UCUUAUUGCAAGGAUAUGCUUUUUAUUUCUUUUGCAGAAGGUGCAACAUGAGGAUCACCCAUGUUUCCGGGCAU [JR_E6_Sub035] (puzzle: Exclusion 6)				16.8		
ACCGUGCAAGGAUAUCGUUACCUCGACAUGAGGAUCACCCAUGUGGCCAUAUAGCGAUUGCGAGAAGGUGCGGGUA [Aatveti] (puzzle: Exclusion 5)				85.2		
AUUAUAUAGAGAGGAUAUAGAAUAUUAUUUUAACAUGAGGAUCACCCAUGUAACCUUAUGUGUAGCUAGAAGGCUCAUUUAUUA [Title] (Eterna round: R96, puzzle: Exclusion NG 2)			33.9			
ACUGGAGCAGGAUAUGCAUUCGUGCUUCGGCACGUAAGGUCACAUGAGGAUCACCCAUGUAGAAGGGCUCCAGU [E2/6-D1] (Eterna round: R97, puzzle: Exclusion 2)	32.9	19.7				
AUGUGGGUAUGAAGGUGUAGAUAGAGCGUACGUUAUGGAACAUGAGGAUCACCCAUGUAGCUUUUUGCUCGUCUUAU [JR_SV3TOV2_Sub034] (puzzle: Sensor v3, turn-off variant 2)				40.9	36.8	40.4
GCACGGAGUGUAGGAUAUUAGUGCGAUUAGCACUGAGAAGGACAUGAGGAUCACCCAUGUUCCUCAAUAAUUAGCCUUCCGUGC [Eli exng1 - 038] (Eterna round: R96, puzzle: Exclusion NG 1)	15.2	15.7	9.61			
GCUGGUCGAGGAUAUACAUGAGGAUCACCCAUGUAGAUCAACCAGCGAUAGCUGGAAUGUAGAAGGUGACCAGC [E3/5-B1] (Eterna round: R97, puzzle: Exclusion 3)	21.9	15.9				
UAAAUGUGAGGAUAUCAGGUGUGCUAGCAUACUGGUACAUCUGAGAAGGCACAUGAGGAUCACCCAUGUUCCUU [Mat - Exclusion 4 - Mod of JL - D52] (puzzle: Exclusion 4)				16.7		
UUUGUUGUUGUGAGGAUAUCGUAGUUAUUUUGAAACGAGAAGGCACAUGAGGAUCACCCAUGUUUGUUGAUGGU [JR_BMOE4_Sub062] (puzzle: Brourd's mod of Exclusion 4)				32.4		
UCAAGCUUUAAGCGUGUGAACAUGAGGAUCACCCAUGUAUUUUUGGUUAGGAGUUCUGUAAGGGAUGCUCGUCUUAU [JR_SWV3TOV1_Sub093] (puzzle: Sensor v3, turn-off variant 1)				47.5	37.4	50.7
UACAUGAGGAUCACCCAUGUUUUGUCGUGUAUGGUAUUUAUCUAGGAUAUCAAUUUGUGUAUUUAUGAGAAGGAGAAUAUUAAU [JMF's solution 68] (Eterna round: R96, puzzle: Exclusion NG 3)	44	45.8	29.5			
UGCGGGCUUUUGAGACCUCACAUGAGGAUCACCCAUGUGCUUGUCUUGUGAGUGGGUAGGUCGUUGGCUGACUCACG [Sensor-V1 #99] (Eterna round: R97, puzzle: Sensor, turn-off variant 1)	23.4	23.1				
GCGCCAUCGUGAGAUGGCGUAAUUACAUGAGGAUCACCCAUGUAGGAUAUCGAUUGCUUUGCAGUCGAGAAGGGCAUGUAUAAU [JL ENG3 3.94] (Eterna round: R96, puzzle: Exclusion NG 3)	45	37.9	26.5			

— the supplement of paper PMC9170038
